Measurements taken from PMC12012478, “Roquin exhibits opposing effects on RNA stem-loop stability through its two ROQ domain binding sites”.

Key:
[1] = target: T1, coreROQ (Roquin-1 core ROQ domain) (murine) (UniProt Q4VGL6); experiment: optical tweezers (kinetics, koff/kon); conditions: low-salt buffer, Protein/RNA buffer 150 mM NaCl, 50 mM Tris pH 7.0, 1 mM TCEP, OT in low-salt near-physiological buffer (composition not in material), EMSA 3 nM RNA, 0-20 uM …
T1 sequence: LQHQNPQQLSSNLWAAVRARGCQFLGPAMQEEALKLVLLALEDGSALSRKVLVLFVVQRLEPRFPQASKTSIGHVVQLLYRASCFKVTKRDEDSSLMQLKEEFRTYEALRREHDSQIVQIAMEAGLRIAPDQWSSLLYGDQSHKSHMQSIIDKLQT

[2] = target: T2, extROQ (Roquin-1 extended ROQ domain) (murine) (UniProt Q4VGL6); experiment: optical tweezers (kinetics, koff/kon); conditions: low-salt buffer, Protein/RNA buffer 150 mM NaCl, 50 mM Tris pH 7.0, 1 mM TCEP, OT in low-salt near-physiological buffer (composition not in material), EMSA 3 nM RNA, 0-20 uM …
T2 sequence: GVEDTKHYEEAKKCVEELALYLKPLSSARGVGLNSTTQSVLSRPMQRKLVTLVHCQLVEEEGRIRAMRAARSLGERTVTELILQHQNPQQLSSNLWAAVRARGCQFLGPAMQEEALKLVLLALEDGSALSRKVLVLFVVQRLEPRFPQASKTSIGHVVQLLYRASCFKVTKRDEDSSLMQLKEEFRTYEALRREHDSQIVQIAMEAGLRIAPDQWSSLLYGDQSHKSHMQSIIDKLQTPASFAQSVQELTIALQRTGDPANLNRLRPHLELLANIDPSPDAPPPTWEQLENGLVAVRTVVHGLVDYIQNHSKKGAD

[3] = target: T3, extROQ (Roquin-1 extended ROQ domain) (murine, UniProt Q4VGL6 89-404); experiment: hydroxyl radical footprinting; residues 62-87 protected, 88-100 more exposed; Protein/RNA buffer 150 mM NaCl, 50 mM Tris pH 7.0, 1 mM TCEP; OT in low-salt near-physiological buffer (composition not in material); EMSA 3 nM RNA, 0-20 uM protein, 6% native PAGE at 4 C; conditions: protein: recombinant; tags: His tag removed by TEV (Ni IMAC; tag type implied); label: 5' fluorescein in EMSA; none stated for NMR/CD; hairpin with hexaloop and central bulge
T3 sequence: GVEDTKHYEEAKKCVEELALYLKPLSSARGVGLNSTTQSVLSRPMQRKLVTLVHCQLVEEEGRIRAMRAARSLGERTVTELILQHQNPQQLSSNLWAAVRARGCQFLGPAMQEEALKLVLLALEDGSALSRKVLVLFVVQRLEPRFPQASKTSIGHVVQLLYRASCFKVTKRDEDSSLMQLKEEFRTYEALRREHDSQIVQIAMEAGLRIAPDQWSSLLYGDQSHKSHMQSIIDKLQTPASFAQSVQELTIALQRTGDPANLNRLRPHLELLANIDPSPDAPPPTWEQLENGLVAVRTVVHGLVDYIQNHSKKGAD

[4] = target: T4, coreROQ (Roquin-1 core ROQ domain) (murine, UniProt Q4VGL6 171-326); experiment: as above; conditions: protein: recombinant; tags: His tag removed by TEV (Ni IMAC; tag type implied); label: 5' fluorescein in EMSA; none stated for NMR/CD; hairpin with hexaloop and central bulge
T4 sequence: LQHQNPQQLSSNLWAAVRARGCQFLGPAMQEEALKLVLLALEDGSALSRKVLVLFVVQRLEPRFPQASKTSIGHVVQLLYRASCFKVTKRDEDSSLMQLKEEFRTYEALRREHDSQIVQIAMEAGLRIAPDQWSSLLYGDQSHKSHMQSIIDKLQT

Molecule “GGCAGGGCUGACGUAGUUGGAGUGGUGCGGGAGGGCCUGCCAGUACCCUCCACACCGUUCUAGGUGCUGGGCUGGCUCUGGGCAGUGAGGGCAGAAUUCAGGUG [Ox40 ADE, optical tweezers construct]” has a Kd ([1]; extrapolated to zero force) of 4.8 nM and a Kd ([2]; extrapolated to zero force) of 1.67 nM.

Work on “GGCAGGGCUGACGUAGUUGGAGUGGUGCGGGAGGGGCUUUCCUAUGUAUGCUAUGCAUACUACAGUGAGGGCAGAAUUCAGGUG [Ox40 CDE, optical tweezers construct]” yielded a Kd ([1]; zero force) of 33 nM and a Kd ([2]; zero force) of 2 nM.

GCCUGCCAGUACCCUCCACACCGUUCUAGGUGCUGGGCUGGCUCUGGGC (structured_RNA) [Ox40 ADE, bulk RNA]: binds [3]; binds [4].
